# Source: the Human Domainome abundance scans (Beltran et al. 2025)
# ± gives the uncertainty stated by the source.
# B1: Connector enhancer of kinase suppressor of ras 2, residues 9 to 71; numbered along this chain, Q8WXI2 (parent)
# chain: SKWSPSQVVDWMKGLDDCLQQYIKNFEREKISGDQLLRITHQELEDLGVSRIGHQELILEAVD
# Variants of: B1
# Test: abundance fitness (aPCA) (normalised: wild type 0, dead -1); higher = more abundant; growth selection in yeast, the domain comes from the species named
# Conditions: Homo sapiens
row,Variant,abundance fitness
1,S32E,-0.341 ± 0.042
2,S32I,-0.589 ± 0.086
3,S32Y,-0.264 ± 0.056
4,S32L,-0.706 ± 0.039
5,S32F,-0.493 ± 0.041
6,S32M,-0.394 ± 0.042
7,S32H,-0.361 ± 0.082
8,S32C,-0.029 ± 0.047
9,D17Q,-0.091 ± 0.038
10,D17C,-0.06 ± 0.063
11,D17G,-0.104 ± 0.032
12,D17R,-0.184 ± 0.025
13,D17E,-0.018 ± 0.037
14,D17F,-0.181 ± 0.076
15,D17K,-0.186 ± 0.041
16,D17A,-0.137 ± 0.025
17,D17Y,-0.203 ± 0.054
18,D17L,-0.446 ± 0.027
19,D17V,-0.359 ± 0.028
20,D17M,-0.268 ± 0.035
21,D17W,-0.497 ± 0.045

row,Variant,abundance fitness
1,D17I,-0.4 ± 0.043
2,D17N,-0.075 ± 0.057
3,D17P,-0.051 ± 0.031
4,E29L,-0.179 ± 0.024
5,E29W,-0.215 ± 0.03
6,E29G,-0.04 ± 0.029
7,E29M,-0.054 ± 0.041
8,E29N,-0.143 ± 0.057
9,E29F,-0.148 ± 0.036
10,E29H,0.003 ± 0.044
11,E29S,-0.043 ± 0.033
12,E29Q,-0.005 ± 0.035
13,E29Y,-0.102 ± 0.046
14,E29K,0.02 ± 0.05
15,E29T,-0.139 ± 0.037
16,E29R,-0.025 ± 0.023
17,D16N,-0.311 ± 0.033
18,D16L,-0.702 ± 0.035
19,D16E,-0.266 ± 0.044
20,D16K,-0.632 ± 0.038
21,D16F,-0.512 ± 0.031

row,Variant,abundance fitness
1,D16M,-0.669 ± 0.056
2,D16Q,-0.293 ± 0.042
3,D16A,-0.408 ± 0.034
4,D16R,-0.631 ± 0.025
5,D16G,-0.466 ± 0.028
6,D16W,-0.527 ± 0.031
7,D16C,-0.72 ± 0.041
8,D16V,-0.675 ± 0.032
9,D16H,-0.358 ± 0.033
10,D16S,-0.402 ± 0.022
11,D16I,-0.615 ± 0.038
12,D16Y,-0.667 ± 0.035
13,D16P,-0.047 ± 0.026
14,E27F,-0.47 ± 0.16
15,E27R,-0.173 ± 0.023
16,E27L,-0.207 ± 0.03
17,E27N,-0.535 ± 0.047
18,E27I,-0.436 ± 0.17
19,E27H,-0.376 ± 0.054
20,E27S,-0.258 ± 0.03
21,E27A,-0.075 ± 0.029

row,Variant,abundance fitness
1,E27M,-0.205 ± 0.058
2,E27P,-0.703 ± 0.065
3,E27T,-0.197 ± 0.033
4,E27Y,-0.316 ± 0.079
5,E27W,-0.311 ± 0.034
6,E27Q,-0.101 ± 0.038
7,E27G,-0.514 ± 0.026
8,E27V,-0.261 ± 0.027
9,E27C,-0.406 ± 0.038
10,E27D,-0.248 ± 0.041
11,I23L,-0.163 ± 0.028
12,I23F,-0.765 ± 0.092
13,I23D,-0.698 ± 0.07
14,I23C,-0.014 ± 0.035
15,I23Y,-0.447 ± 0.053
16,I23K,-0.361 ± 0.058
17,I23S,-0.247 ± 0.029
18,I23A,0.006 ± 0.027
19,I23H,-0.393 ± 0.082
20,I23V,-0.008 ± 0.023
